Assay: soluble on expression in E. coli; label from the status in PepcDB or PDB records

Sequence | soluble on expression in E. coli
MSLTSEDFLIKSKGYLDIQTGEIIKADLLIRNGKIAEIGKINTKDATVISIPDLILIPGLMDSHVHIVGNDSKGEESIADSSHMGTVWGVVNAEKTLMAGFTTVRNVGAANYADVSVRDAIERGVINGPTMLVSGPALGITGGHCDHNLLPPEFNYSSEGVVDSPWEARKMVRKNRKYGADLIKFCATGGVMSRNTDVNAKQFTLEEMKAIVDEAHNHGMKVAAHAHGLIGIKAAIKAGVDSVEHASFIDDETIDMAIKNNTVLSMDIFVSDYILGEGAKAGIREESLNKERLVGKKQRENFMNAHRRGAIITFGTDAGIFDHGDNAKQFAYMVEWGMTPLEAIQASTIKTATLFGIENIGQIKEGFDADIVGVIENPLANIRTLEEVAFVMKEGKVYKREGHHHHHH | soluble
MFSEELIKENENIWRRFLPHKFLIEMAENTIKKENFEKWLVNDYYFVKNALRFMALLMAKAPDDLLPFFAESIYYISKELEMFEKKAQELGISLNGEIDWRAKSYVNYLLSVASLGSFLEGFTALYCEEKAYYEAWKWVRENLKERSPYQEFINHWSSQEFGEYVKRIEKILNSLAEKHGEFEKERAREVFKEVSKFELIFWDIAYGGEGNVLEHHHHHH | soluble
MAHHHHHHMDTNDYENLRFYNYIPVNKELKKSCIPCPDTEDYEAKLNKEFDEELTKVFQGNILDQINAKDINADLKRDLKKKLDILSKKTDKAVVQLIKQKINENKNKENITNTNDDEKEKETMTLNFDKKGDKNFGHVLYKTLDKLDVMDDESD | soluble
MGSDKIHHHHHHKEKSTVAVLPFTVHSADNIDYVKQGISDMLTSRIAVEGKISVASKDLVQEAIKGRTTRDLTPEEMNALGKKLNVDYIVSGSITKIGNSLSIDGKLMDLAAARSTVGIFAQTQGLDEVIPKINDFSQRIVQHITGSTPSDFSSPAMELPAPSSAAAVADKPPQRSRESEIISGMRTSRKGTFTSIINPDFIDAARPLDRKGFWMSQKFPTEFRGMAIGDVNGDKLQEVVVIDRSNLYVYQRKGDDFKLLQKIPGKTHDNYLAVDVADINQNGIMEIFVTNMNRNTLASFVTEWQDGKYIQTAKDLRLFLRVIEPSIAAPQLLGQGFGLDNPFNTPIHEVIWDGKHYRAATRMKIPEGLSVYGLTLDDLGMGGSEKVISLDDYDYIRIYQQTEKPLSRLNVFGGSDELIWKSDEVFGGSNTYVEHAGSTVPGDEVRRTYINLRILTYDINKDGKKELILVKNLSAVGRVLKNVKLFTSSEVYNLEWDGLGLLENWKTRKINGYVADYQFKDIDNDGQNEIVLALVLSTGATLQNRSAFVAYKLSPQQ | not soluble
KEELESIINSSPVIVFLWKYEEGWPIEFVSENVTRLGYEVEDFTSRKILYGNIVYPGDLEKVERELARNIEFGCEDYSSEYRILTKSGEVRWVDERTFIQRDEKGEIRLQGIILDIT | not soluble
MPRRNPLWLRLPGSSSPSSSSTTEELRLAALSPYSPNDDISSIPDSLEHSPAKTSDDGSEISRANFSSPSSPSRSPSKKVSWSLFDQVSLSGEEFLLPRRFEAIELNAGTSTRSTSISCSATDLLESDHVTIRKISLQDPATARREYRNIILCRLLPHPNILPISEAYEVDSTLYTVSEQMDGRLSDIVEERLTHFVVAKISHQILAAVAMMHQNGIAHGDLTLSTIYVNTDAELRLSSYGKSDDSSEHLDERYRDDLLSIGAIVSRFLMNEEEMFKFSKSRNLKDIDWRVVLEGSSDSGLLDFNARSLLFQLLEGRQSARDLLRHPYFKSFRAPQHQTVERKHTVVGQKTSDEVLDKLREELQRFNPFNMSEIML | not soluble
AKVIFVLAMDVSGKIASSVESWSSFEDRKNFRKITTEIGNVVMGRITFEEIGRPLPERLNVVLTRRPKTSNNPSLVFFNGSPADVVKFLEGKGYERVAVIGGKTVFTEFLREKLVDELFVTVEPYVFGKGIPFFDEFEGYFPLKLLEMRRLNERGTLFLKYSVEKSHR | soluble
MSLIVNFHKVNLKKKYPLQISRGTHSKSQNLFVEIIKDGITGWGESAPGKTEGASNADEVEKWLLKLIDTGIDSLSIYEIFQRSKDLNIPPCVHAAIDIALWDWKAKKAGLPLNNLLGLPTPSTPTSLTIGINPPEIIKERVEMLLSNPQIKALKIKLGSPDGIEYDKSIYSQVLESTKKSNISIRVDANGGWSLDEAKLMMKWLAERKAEYIEQPLVEGEEDKLKYLFKSRPLPIFIDESCRFSEDVARHFEYVDGVNLKLMKCGGITEALRILNVAKSHNLKTMIGCMSESSISISAGASISGIIDYVDLDSHYNLDPDPSEGATMIDGITMNDNKPGHGSKLKIENYAEGHHHHHH | soluble
MGSDKIHHHHHHVCRNCSNKQKIRKNSMDYTDISILHTNDMHSYMENFPKKAQLIANIRARNEKEGVPTFVFDSGDLFSGNIFFNMYRGVKEIELMNQIGCQAMTLGNHEFDHGDELISRLDDYAQFPIVSSNLRYQDVEVADELVPLEDVLEFDMNGKNLYVLGLTTLETQEVASPSENVIFEDHKQALRRLVDQIVSQNPSAHLVLLSHLGYDEDVHLAKDFPELNVILGGHTHTILKQPSQIGGVSICQAGQYGRFVGHLSLRCFADGRREVQAYDLIEVEKLTQEDRAVKAIIDQMKSERDAAFSKPIAILPQALDGERDSIRQGLSTLAPVICQALFEQASQLGLQADGAVINGFGIRASLSAGPIFYSDLVKVLPFSKRVLLVRIKGRDLLSSLQTGLHPQMWGIVQSGEDLLVNGRAVESDKDYQIVTNSFVWSGKDNYDDFHKAEIVQDLGLDIDIISEFFKRQYGG | not soluble
MSLTLPDTDQLVAGIQSWIQCESPSNSPAGVTAMAHLAAEYARAVGLAVEIRPLNAEVGPLVHATNRAAGDTRPGVLILGHIDTVHPIGTLQDNPCRIDGDRLYGPGSYDMKAGIYLALSALRGLPSPDATALPVDFLLVPDEETGSHASREHIEHYAARAKYALVCEPARPNGGKCVTARKGTGMLRLNVKGRPAHAGMQHEKGRSAIREMAHQVLELESMTDYERGITVSVGTIAGGTVTNTVPAQCRCVVDFRVPDMGATEDVLRRMRNLCSVGPDMELDIDVELNRPPMVKTEAASALLQLAQDFAAQAGFALEDAPMTGGGSDANFTSAMGVPTLDGLGADGDGAHTLNEYILVSTLAARMRFWELLLKELHEGHHHHHH | soluble
MKLEIFSWWAGDEGPALEALIRLYKQKYPGVEVINATVTGGAGVNARAVLKTRMLGGDPPDTFQVHAGMELIGTWVVANRMEDLSALFRQEGWLQAFPKGLIDLISYKGGIWSVPVNIHRSNVMWYLPAKLKGWGVNPPRTWDKFLATCQTLKQKGLEAPLALGENWTQQHLWESVALAVLGPDDWNNLWNGKLKFTDPKAVRAWEVFGRVLDCANKDAAGLSWQQAVDRVVQGKAAFNIMGDWAAGYMTTTLKLKPGTDFAWAPSPGTQGVFMMLSDSFGLPKGAKNRQNAINWLRLVGSKEGQDTSNPLKGSIAARLDSDPSKYNAYGQSAMRDWRSNRIVGSLVHGAVAPESFMSQFGTVMEIFLQTRNPQAAANAAQAIADQVGLGRLGQHHHHHH | soluble
FDGNLKRYLKSEPIPESNDGPVKVVVAENFDEIVNNENKDVLIEFYAPWCGHCKNLEPKYKELGEKLSKDPNIVIAKMDATANDVPSPYEVRGFPTIYFSPANKKLNPKKYEGGRELSDFISYLQREAT | soluble
MRGSHHHHHHGSIQKTTIAADSSSKPRGINYDTGIPFNVLIVDDSVFTVKQLTQIFTSEGFNIIDTAADGEEAVIKYKNHYPNIDIVTLDITMPKMDGITCLSNIMEFDKNARVIMISALGKEQLVKDCLIKGAKTFIVKPLDRAKVLQRVMSVFVK | soluble
GPGSMLRPSSLCRVAFPVHRDTTKTPRLVKEVGSWLYKRETVESFRAWCKANNVRGSGNVKVVSTMHYARCLRAARHLRPGQAIITLPHTACFNFLVVAKEMYGVSGKGGTVSHNFPLEVNWMNYDERCSFLRSASMSELTTAGWMCRIASLEESRFTPYIHWLLEDTRGRDGVANGVSRERGEESGLVDHYFSEMATDACEDPEEFLENLFRSFAALHLRAVPIESAAIRLFLPGTNFFKAKVDEMFVPTLMPLIDAVPQLEDGLHNTAVEYFPFSDEETLLKQCKDLVLSEGGTNEMRELRRRCLAQEQGAGAFFALRALCPIEEGDYLYVRGVPKLGAPEQESMTVRVMEANRLLNNE | not soluble
MKQTPPLISFITICYNGLDDTCMLIESLRDTISSVSYEIIVVDNASRQDEASLIQERYPFVRTLRSEKNLGFSGGNNLGIQIAQGKYLFLINNDTYLTEDGLPALIERLESDPRIGAVSPKIRFAFPPQSIQFAGYTKLSRYTMRNKALGMGCPDDGTFDTPRPSAYLHGAALMLKREVIWKAGLMPEIYFLYYEELDWCTSMTRAGYQLWYEPRCTIFHKESQSTGRQSPLRTFYMMRNRMLYAWRNLPGMERCLAIAYQMLIVAPKDSLCFVLKGEPKLAKAVWHGVKGFWKLC | not soluble
MAHHHHHHSLKILFVAAEGAPFAKTGGLGDVIGALPKSLVKNNNEVSVILPYYDVVDAKFGDQIEDLFYFFTNVGWRREYVGIKHIFRDGVDFYFIDNKHYFYRGQIYGEFDDGERFAYFQLAALEAMEKIQFIPDILHVHDYHTAMIPYLLKEKYHWINAYHGIKTVFTIHNIEFQGQFNPSMLGELFGVGDERYRDGTLRWNDCLNWMKAAVLYADRVTTVSPSYAKEIMTPEFGKGLDQIMRMESGKLSGVVNGIDTDLFDPETDPHLAVHFSKDDLSGKAKNKAALQERVGLPVREDVPLVGIVSRLTDQKGFQLVVDQLNTMMQLDLQIVLLGTGYADFENAFAWFGHAYPDKMSANITFDLELAQQIYAASDIFLMPSAFEPCGLSQMMAMRYGTLPLVHEVGGLRDTVIPYNEFEKTGTGFGFQDFSGYWLTKTLEAALDVYYNRKEDWKILQKNAMTTDFSWDTASQSYEHLYKELAEG | soluble
MAGDPMGRQRGAGLGGGHDEREQTLNQMLVEMDGFSGNDGVIVIAATNRPDVLDPALTRPGRFDRQVVVGLPDVKGREQILKVHMRKVSVAQDVDAMTLARGTPGYSGADLANLVNEAALFAARVNKRTVTMLEFEKAKDKINMGPERRTMIMTDKQKESTAYHEAGHAIVGYLVPEHDPVHKVTIIPRGRALGVTFFLPEGDQISISQKQLESKLSTLYAGRLAEDLIYGEENISTGASNDIKVATNIARNMVTQWGFSEKLGPILYTEDEGEVFLGRSMAKAKHMSDETAHSIDEEVRAIVNRNYARAREILIDNMDILHAMKDALVKYETIEEEQIKQLMNREPVTPPSGWGEPKTQQAAYANSTTNDTKPESAVENTDDFNVAAALEHHHHHH | not soluble
PWTQNKRNLKHLNQLKEDILNNFEDLKLKDEKIIVMLSGGKDSAVSLAVAKELGLNVHLCVHFVHKWSWDISTNEAKKLADRFNIPIIFPNVTEELAKKTQGAKGKSICRICKTIMKARMIDIAKEENAKIIMTGETALEKIAGPVFQYIRENNTNVKRKDEFELYKKMEITKVPKRYKIHFFRPLIRVGHFDVFNLQKYYNIDIKRVSE | not soluble
MKELETRIIDIDVEKLRETLNKLGAKNVKRENQTNDIFDFPDRKLLDKKGYARIRTVEDLINNKTVYFMTTKKMLSQDKFKVMEENETIIEDGAMGKNIFKSLGLELFETIKKYRESYKYKDSLIEIDINDPSFCPFPYIEIETSSEEKLNEILIDLGYSMEDTTSKTIYEILKDKGISPDSNKKGLLEHHHHHH | soluble
GPGSMSDVDDLIEELFPKKEGGRAPPEGKGGAACEPPASQSNWDDTDEANSEAETTTRNRGTSVSLEAAASTTANVGDGRGEDFDDSDESVEETVMGGRHTVPFPPTPGNMSMACNSKCFVTNVGSGELRHPSVAQLLLTGEGKYDKCSSNEQLLLRKGAFHALKADAGNGCTDKTADEDGRKGGCPFILCRKCNYTVIRLQDAEWDDEEGKMDLYLTVRNFYPDWSRLASSLPVGQMRRGEQNTVLKTCPDSAAYCCQCSWLTVKCAQEVIDTRVTDHTKFVGKELTCCFATQLPLISGEKRRPPLWVCGGHVPKH | soluble
